Results: the supplement of paper PMC12764529
± gives the half width of the 95% confidence interval.

Experiments:
[1] = folding stability dG unfold from trypsin proteolysis; higher = more stable
Procedure, shortened: (§1)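 Bayesian fitting of sequencing counts gave K50 for each design. Unfolding free energy followed by setting this against a sequence-predicted unfolded-state K50 and a shared folded-state K50, either per protease or with trypsin and chymotrypsin combined. The designs, under 80 residues and lacking cysteine, were digested in a PA-tagged cDNA display format at 11 threefold-diluted protease concentrations and without protease, and only those with AlphaFold2 dimer inter-PAE above 15 were kept.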

[2] = folding stability dG unfold from chymotrypsin proteolysis; higher = more stable
Procedure, shortened: as §1

[3] = folding stability dG unfold (combined trypsin and chymotrypsin); higher = more stable
Procedure, shortened: as §1

Sequence	folding stability dG unfold [1] [kJ/mol]	folding stability dG unfold [2] [kJ/mol]	folding stability dG unfold [3] [kJ/mol]
SAGGSAGGSAGMTVEVVKSVVPTKTNETVIVTTVTEVEPPTGKVTTLETKTVSTANPELLSAGGSAGGSAGG [r11_777_JUSTAS]	-3.16 ± 0.502	-1.65 ± 0.46	-1.55 ± 0.962
SSITETKEFLLESEEEVEAIAEELKKPGVEVEVEVKEVERVDKKTGKKKKALKATITVKIPLPPPEKGKLSA [r9_962_JUSTAS]	3.31 ± 0.226	3.11 ± 0.289	3.32 ± 0.628
SAGSMLSVEEVEVTYNNPETGTPATIKLTVPVFYDPVTGRVEVEVEVEPSPEVPEEVAKEIAEKVKEKRSAG [r14_152_JUSTAS]	-5.27 ± 3.97	2.06 ± 0.276	-0.0577 ± 1.46
SAGGSAGGGMTAEELAAKAIEEALKAGETVTVEIEVTNPNGETFTLELTLVVVDPDDPEALEALSAGGSAGG [r6_534_TrROS_Hall]	6.85 ± 0.238	5.38 ± 0.0586	6.23 ± 0.209
SAGGSAGGSAMKLEVFPVPDGQIAVFEDADGNIRVIGVPEPNLSISDIAKIALDLGADSVELSAGGSAGGSA [r18_83_TrMRF]	1.89 ± 0.222	-1.88 ± 0.879	0.649 ± 0.669
SAGGSAGGSAMPGKTYRVRIRLYNEETGELVEERELEVETLDELKEAAEKEGWKIVEIEVESAGGSAGGSAG [r3_423_TrROS_Hall]	13.1 ± 0.586	14.6 ± 0.46	14 ± 0.795
SAGGSAGGSAGGEIKSGDKVVLVFNEDGKGYKAYYEEELEKLLKEDPKIKKVLVVDVPAESAGGSAGGSAGG [r7_118_TrMRF]	-0.726 ± 0.268	-4.34 ± 3.22	-1.79 ± 0.92
SMTISIPGGITITIEPKPNSYTLTVSFPDGSTVTRPVDPSDLTSAIKAVIREALRRADPNITEEEIEKLLSA [r9_634_JUSTAS]	18.4 ± 0.418	25.4 ± 0.711	> 25.1
SMPEVRVEEVTIELEFTLPDGRTVRVEIRLTRVTLPDGRVFTRLEIKVEVPEEDEEARKLLKELLEELLSSA [r9_908_TrROS_Hall]	18.9 ± 0.586	19.9 ± 0.544	19.6 ± 0.502
SAGSRVLTLVFEIPGRPEVVENLPEDVVLPDGARLYRDGERLLLVVEREVPSLPVLDADGRPVGPELLSAGG [r19_148_TrMRF]	1.67 ± 0.113	4.64 ± 0.234	3.56 ± 0.163
SAGGSAGGSAGLTLEVELPDGKPFPVEVLEVDPGEEDVVVIRVKVKVGDKEYEVTLVLDLSAGGSAGGSAGG [r17_536_TrMRF]	8.13 ± 0.397	7.38 ± 0.335	7.97 ± 0.628
SAGGSAGGKSPEDRQRENMKPVPPIEVVEIRIPIPPGMPIDQAKNIASNLMEHLGVDYVRIEITSAGGSAGG [r6_517_TrROS]	2.84 ± 0.159	-2 ± 0.879	1.24 ± 1
SAGKYKIKNVQFSNNSITIEIYDDGKPKAEIPIPPNFPNMKVDAEIDEDGSIKIKFRFNGQPQEIEIPPSAG [r5_533_TrROS]	3.43 ± 0.238	6.44 ± 0.711	5.21 ± 1.3
SAGGSAGGSKSYEIKEITFDPENNTITIVLVAPDGKIVRTETFKPGEEVVFTFENGEKVTVKASAGGSAGGS [r12_441_TrMRF]	8.34 ± 0.247	11.83 ± 0.0335	10.6 ± 0.209
SAGGYLVRIEMPNGREHEYPVKDIDDAASRFRDHLGFPPNMKLKVEVYDPKDGEKKERTLTIPMPKPKSAGG [r13_145_TrROS]	0.131 ± 0.385	2.11 ± 0.502	1.58 ± 0.289
SGPTVTYKVPYTRDVAVPTVKIGAKVTTTTTVTKLPNGTLASTSTSADVELTLNLPPDTPLSPNYLSTGGSA [r9_277_JUSTAS]	-0.342 ± 0.879	-0.732 ± 1.59	-0.349 ± 0.837
SAGGSAGGSAGGKKTIVIEINGKKYTITRIEFDKDTKKITIEIEFNGKKLKIEIELPKNLSAGGSAGGSAGG [r7_477_TrROS_Hall]	9.07 ± 0.326	13.8 ± 0.669	13 ± 1.13
SAGGPVLVLVEVEAGFDGRPRLRRLVLPVELRPDGTVDLDAVRRAVEELLPPDWRILRIEVVPPDAPFSAGG [r13_504_TrMRF]	6.596 ± 0.046	6.11 ± 0.188	6.6 ± 0.197
SAGGSAGGMIKYSEEAPDPSYRTEVEVTPVPGKVAIKTTTYRNENGVWTAEESTSVVSPEALLSSAGGSAGG [r6_778_JUSTAS]	-2.94 ± 0.795	1.43 ± 0.397	0.409 ± 0.368
SAGGSAGGSAGGPLPGKPPLRLKLFTLTVRTRTYRKTEDGTWEEVEESEAEITVLVLEPVSAGGSAGGSAGG [r7_506_TrROS_Hall]	14.4 ± 0.46	20.9 ± 0.711	19.7 ± 0.586
SMKMSPEEKLKELAKELAEKLEEETGKKVKVRVTVEYNGKTFEIEIEEGETIEDIRNKFPGLKIKVEIEPSA [r9_513_TrROS_Hall]	5.59 ± 0.711	0.0415 ± 0.92	4.53 ± 1.72

Sequence	folding stability dG unfold [1] [kJ/mol]	folding stability dG unfold [2] [kJ/mol]	folding stability dG unfold [3] [kJ/mol]
SAGMTIEVEYTFPPGNPEEAEKRAEEIAEELKPKPLPNITIEISREPVVDPNSDATTTRYTFTITAEPKSAG [r5_49_JUSTAS]	3.43 ± 0.213	4.97 ± 0.586	4.25 ± 0.795
SAGGSAGGSAMPLEKVIKNLTSSGSVESLKEKLAKEYGVEKVEVTKDPNSDTYSAKVFLKKPSAGGSAGGSA [r18_275_JUSTAS]	-0.613 ± 0.753	-0.0744 ± 1.3	0.547 ± 0.628
SAGGSAGGSAGVKSVGPIIYPNGEVFGDVKAEEETLPNGKKKLKIYATFSDGSKYEFTLDSAGGSAGGSAGG [r11_810_TrMRF]	-1.09 ± 1.42	3.05 ± 0.544	1.36 ± 1.09
SMPPLGEETTLLETIELPEKLTVEIRRVTLPNGVPLIEVSKTDPSGNTTPIFRAPGNDPAALAAARAALASA [r9_1069_JUSTAS]	1.83 ± 0.326	-0.0684 ± 1.97	1.1 ± 0.879
SAMTLRIELTKEELEKLIKELKPGDEVELEIEVNGRTYRIRAKITRIERVDDKVYIEVELEIEELPEEESAG [r14_335_TrROS_Hall]	18.7 ± 0.46	19.9 ± 0.268	19.4 ± 0.544
SAGGSKIRIVEIQPSNGFTIKIRPKNGKKMTIPIPPDDMNDPENWERFARTLAKWFEKNGVKDIEISAGGSA [r2_249_TrROS]	1.31 ± 0.711	2.57 ± 1.55	2.25 ± 1.09
SWTFPILIRFPFDDPEDLDKAREMAEDLVRYLAEEFGWPVKIDKVKYERNPENGWVWIRAEITVTPPDDVSA [r9_105_TrROS]	15.2 ± 0.335	22.2 ± 0.41	20.5 ± 0.46
SAGGKMKTVKVTITDKDGRKIEIVDVTVKDNKVYVVVKDKKTKKTIVLEFDTKEEAEEAIKKLLEAKSAGGS [r16_736_TrROS_Hall]	4.08 ± 0.297	10.5 ± 0.276	9.11 ± 1.42
SAGGSAKLTIELVISDMSPEDAEIAAENIRIELIKKGIPEEEIENVDIKVIVAPVYLDEDNNLILGSAGGSA [r15_684_TrMRF]	2.23 ± 0.0795	2.75 ± 0.146	2.9 ± 0.243
SAGGSAKKDGTITIKIPVKAPKDKNGKVFKPSAEAIKAKFGELGFDFEIEEIKESETYLEIKIKVKSAGGSA [r15_225_TrMRF]	2.14 ± 0.36	7.45 ± 0.389	6.39 ± 0.879
SAGGSAGGSPVFESPEQAKAFLDNVPADSTVLIAVKNPETGEWQLFVVKVPPKRPVGYPGDKDSAGGSAGGS [r12_393_TrMRF]	4.53 ± 0.272	7.47 ± 0.301	6.53 ± 0.356
SAGGSAGGSAGMPKVEAVDISYSADPNSKSYTITIKSPDGEPIVLTLNSPSEIENLELVLSAGGSAGGSAGG [r11_711_JUSTAS]	4.99 ± 0.109	5.61 ± 0.418	5.6 ± 0.544
SAGGSAGGIIVWFPFDDIDELIKNGNIDEVEISRDPNDWFRFTPEIRPPPPPPPEQLAKNNKKNSAGGSAGG [r6_279_TrROS]	4.29 ± 0.669	2.06 ± 0.46	3.08 ± 0.92
SAGGSAMKIKPGETVTIKVKNKETGEWFEAKIVKVDEEKGEIEIEVEVNGKKYTFTIPAEDIEIVESAGGSA [r15_381_TrROS_Hall]	7.81 ± 1.38	13.1 ± 0.322	12.1 ± 1.21
SAGGSAGGSAGGRKRYRFKPGQRLEPRLVFRLKLRLELERDEDGNLSLKLELEIEEVRLLSAGGSAGGSAGG [r7_572_TrROS_Hall]	14 ± 0.544	18.4 ± 0.41	17.1 ± 1.21
SAMMTPEERAFVERLRALFAERGGRIEIRFFEEPDRIEILVEEDDPELIREIREELARIPFPISRIVEESAG [r14_284_TrMRF]	10.18 ± 0.0669	15.46 ± 0.0502	13.9 ± 0.167
SMPEIKVEKKNGKLTITVPKGAKIKIKIEVNGKKIEKEVEVKEGETVTITIELPPNMPKDVKIKEIEIEKSA [r9_1152_TrROS_Hall]	6.73 ± 0.276	8.09 ± 0.544	7.89 ± 0.544
SAGGSGMVRQEHEYRGPNGWHMRSEMYYSPENGMMNMEMEWVPVIKLPEDDPAKLKKLLAKEGIPISAGGSA [r2_304_TrROS]	0.496 ± 0.669	4.97 ± 0.414	3.36 ± 0.711
SMTRVKVELLITNPATGETFYYDIEATEEEAEEIAKELEESYPEKNATVTIKKKEVIPVEPPVVLPEGILSA [r9_14_JUSTAS]	1.75 ± 0.151	3.79 ± 0.238	3.41 ± 0.289
SAGGLAKAVAEELGLPELKVKEVRFAPDPAGPGLTVEVVFELPDGSYLRVEVRFHPDRIEIKAVPLPPSAGG [r19_392_TrMRF]	8.75 ± 0.389	15.3 ± 0.628	13.5 ± 0.628
SAGGSAGGSAVPPDRPFTLPVLTLVRDPETGELYLARAEVTFLAPDPVITAARLEVFPPDADFSAGGSAGGS [r12_868_TrMRF]	3.19 ± 0.243	7.07 ± 0.356	5.59 ± 0.377
